Patent US20260265360A1, “USE OF ANTI-FAM19A5 ANTAGONISTS FOR TREATING HEARING DISORDERS” (NEURACLE SCIENCE CO., LTD., priority 2023, published 2026)

B1: 1-30: anti-FAM19A5 antibody, de-immunized variant of 3-2; VH SEQ ID NO: 235, VL SEQ ID NO: 240 (antibody, V domains shown)
VH: AVTLDESGGGLQTPGGALRLSCKASGFDFESFNMFWVRQAPGKGLEYVSQISSSEEDENYAPAVKGRATISRDNGQSTLYLQMNSLRAEDTGTYYCAKSSYDCPYGHCSSGVDSAGEIDAWGHGTEVIVSS
VL: ALTQPSSVSANPGETVKITCSGGGSEEEQYYYGWYQQKPGSAPVTLIYQDEERPSDIPSRFSGSTSGSTATLTITGVQAGDEADYYCGSWDSEDEDHFGAGTTLTVL
modifications: Low-PI VH, 1-30 VH, 1-17 VH, 1-32 VH, 4-11 VH, 6-10 VH; 1-30 VL
B2: 2-13: anti-FAM19A5 antibody; VH SEQ ID NO: 35, VL SEQ ID NO: 39 (antibody, V domains shown)
VH: AVTLDESGGGLQTPGGALSLVCKASGFTFSSHGMFWVRQTPGKGLEYVAEITNDGSGTNYGSAVKGRATISRDNGQSTVRLQLNNLRAEDTGTYFCARSTYECPGGFSCWGDTGQIDAWGHGTEVIVSS
VL: ALTQPSSVSANPGETVKITCSGGSYSYGWFQQKSPGSALVTVIYWDDERPSDIPSRFSGALSGSTNTLTITGVQADDEAVYFCGTEDISGTAGVFGAGTTLTVL
modifications: 2-13 VH; 2-13 VL

How the values were obtained:
aged mice = assay: Age-related hearing loss in aged mice; type: in vivo, mouse; conditions: for ABR threshold vs control animals: 30 mg/kg i.v. weekly for eight weeks
Procedure: FIGS. 17A, 17B, 17C, and 17D show the therapeutic effect of FAM19A5 antagonists (1-30) on auditory brainstem response (ABR) threshold in an aged mouse model. FIG. 17A provides a schematic of the experimental design. As shown, anti-FAM19A5 antibody (1-30) or control human IgG antibody was administered to the mice (1-year old) intravenously once a week (30 mg/kg per dose) for a total of eight administrations. ABR (i.e., hearing test) was measured both prior to the initial administration of the antibodies and then at one and two months after administration. FIG. 17B provides the results before injection. FIG. 17C provides the results at one month post administration. FIG. 17D provides the results at two months post administration. In each of FIGS. 16B-16D, ABR threshold was measured at a frequency ranging from 4 kHz to 64 kHz.
FIGS. 18A, 18B, and 18C show the therapeutic effect of FAM19A5 antagonists (1-30) as comparison of wave I amplitude profile in an aged mouse model. The mice were treated as shown and described in FIG. 17A. FIG. 18A provides the results before injection. FIG. 18B provides the results at one month post injection. FIG. 18C provides the results at two months post injection. Tone bursts were measured across 0 and 90 dB.
Next, to assess whether the FAM19A5 antagonists provided herein can also treat age-related hearing loss, aged mice (e.g., about 6 months to 1 year in age) were used. […] Then, various hearing parameters (e.g., ABR threshold, DPOAE amplitude, and ABR waveform analysis) were assessed in the animals at one and two months after initial administration.

[1] = test system: primary mouse spiral ganglion neurons; assay: Promotion of neurite outgrowth; type: cell-based; conditions: neurons isolated at postnatal day 4; neurofilament staining
Procedure: Sprial ganglion neuron were cultured in culture media consisting of high-glucose (4.5 mg/mL) DMEM, 0.1 mg/ml penicillin, 0.1 mg/mL streptomycin, N2 supplement, and 10 µg/mL insulin and was designated here as “5K” because in this media, [K+]=5.4 mM. A depolarizing media, designated as “30K,” in which Na was replaced with equimolar K to raise [K] to 30 mM while maintaining osmolarity was also used.
Dissociated spiral ganglion cell cultures were prepared from postnatal day 4-5 (P4-5) cochleae and maintained using a procedure modified from the methods described by Bok et al., J Neurosci 23 (3): 777-87 (2003), which is incorporated herein by reference in its entirety. The cochleae were aseptically dissected from the temporal bone and submerged in ice-cold HBSS (Gibco). Subsequent steps involved the removal of the bony cochlear capsule and the spiral ligament. The organ of Corti, surrounding connective tissue and modiolar bone was removed while preserving the spiral ganglion neurons within the modiolus. […]
Neurite outgrowth was quantified by measuring the total length of neurites per neuron. Neurons were stained with NF200 at either 2 or 3 DIV, and neurite lengths were measured using the Fiji (Image J). Individual neurons were manually selected, and neurite lengths were determined using the Simple Neurite Tracer plugin. […]

FAM19A5 mutants M1 to M8 [2] = biological target: T1, FAM19A5 mutants M1 to M8 (Homo sapiens, UniProt Q7Z5A7); assay: Epitope mapping ELISA with FAM19A5 mutants M1-M8; type: binding
T1 construct: made in house; host or cells: phage display with helper phage
T1 sequence (Q7Z5A7 with tags, fused parts or gaps isoform Q7Z5A7-2, change not shown): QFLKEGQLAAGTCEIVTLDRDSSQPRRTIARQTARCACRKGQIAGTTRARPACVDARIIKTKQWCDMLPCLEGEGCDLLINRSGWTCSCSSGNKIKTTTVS
Procedure: (§1) To further characterize the binding epitopes of the anti-FAM19A5 antibodies disclosed in the present disclosure, the amino acid sequences for the different FAM19 family members (i.e., FAM19A1-5) were aligned. […] The amino acid sequences of these regions were replaced with the consensus sequence of the corresponding regions for the FAM19A1-4 proteins. See Table 13 (the mutated amino acid residues are bolded and underlined).
(§2) The mutant FAM19A5-expressing phages were prepared as follows. To prepare the media for phage culture, 55.6 ml of 2M Glucose (D-(+)-Glucose, Sigma), 5 mL of 1M MgCl2 (Magnesium chloride, Junsei) 1 mL of 34 mg/mL chloramphenicol (Sigma) were added to 2×YT media. Colonies obtained through mono-phage ELISA were selected and placed in 5 mL of prepared media (2×YT-GMC) to be cultured for 16 hours at 37° C. with shaking incubator (VS-8480, Vision). 100 μL of each culture was transferred to 10 mL 2×YT-GMC individually which were cultured at 37° C. in the incubator until detection value at O.D. 600 nm reached 0.5. Once detection value has reached 0.5 at O.D. 600 nm, 5 mL of each culture were obtained as samples to be infected. Following sample preparation, 50 μL of […] was added to individual samples then incubated at 37° C. without shaking for 30 minutes and with shaking for additional 30 minutes. Individual cultures were centrifuged for 15 minutes at 3,850 rpm using Micro centrifuge (Micro12, Hanil). The supernatants of centrifuged cultures were removed to be kept separate and replaced with 5 mL of 2×YT media containing 1 mL of IM IPTG (AG Scientific), 5 mL of 1M MgCl2.1 ml of 70 μg/μL kanamycin (Biopure) and 1 mL of Chloramphenicol. The resulting pellets were dispersed thoroughly in newly added media followed by incubation at 30° C. for 16 hours with stirring.

FAM19A5 mutants M1 to M8 [3] = biological target: T2, FAM19A5 mutants M1 to M8 (Homo sapiens, UniProt Q7Z5A7, A66V/A69S/K72P/R67K/R71F); assay: Epitope mapping ELISA with FAM19A5 mutants M1-M8; type: binding
T2 construct: made in house; host or cells: phage display with helper phage
T2 sequence (Q7Z5A7 26-125 isoform Q7Z5A7-2 A59V/R60K/A62S/R64F/K65P): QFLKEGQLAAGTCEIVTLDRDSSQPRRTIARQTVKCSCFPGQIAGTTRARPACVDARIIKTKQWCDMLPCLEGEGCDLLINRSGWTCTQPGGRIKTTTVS
Procedure: as §1, §2

FAM19A5 mutants M1 to M8 [4] = assay: Epitope mapping ELISA with FAM19A5 mutants M1-M8; type: binding
Procedure: as §1, §2

Molecule | wave I amplitude vs control animals (aged mice; general trend, results not statistically significant) | ABR threshold vs control animals (aged mice; one-month post administration) | ABR threshold vs control animals (aged mice; two-month post administration) | neurite length vs control human IgG antibody [1] | binding to FAM19A5 mutant M8 (FAM19A5 mutants M1 to M8 [2]) | binding to FAM19A5 mutant M4 (FAM19A5 mutants M1 to M8 [3]) | binding to FAM19A5 mutants M1-M3 and M5-M7 (FAM19A5 mutants M1 to M8 [4])
B1 | decreased wave I amplitude | significantly decreased | significantly decreased | promoting neurite outgrowth | – | – | –
B2 | – | – | – | promoting neurite outgrowth | failed to bind | failed to bind | moderate to high binding
